Experimental data published in US20170101470A1 (PROTHENA BIOSCIENCES, published 2017).
Where a chain is given by its changes, count along the chain named.

T1: human MCAM expressed on CHO cells (full length human MCAM gene) (human, UniProt P43121 24-646)
T1 construct: also called hMCAM expressing CHO cells; CD146
T1 chain: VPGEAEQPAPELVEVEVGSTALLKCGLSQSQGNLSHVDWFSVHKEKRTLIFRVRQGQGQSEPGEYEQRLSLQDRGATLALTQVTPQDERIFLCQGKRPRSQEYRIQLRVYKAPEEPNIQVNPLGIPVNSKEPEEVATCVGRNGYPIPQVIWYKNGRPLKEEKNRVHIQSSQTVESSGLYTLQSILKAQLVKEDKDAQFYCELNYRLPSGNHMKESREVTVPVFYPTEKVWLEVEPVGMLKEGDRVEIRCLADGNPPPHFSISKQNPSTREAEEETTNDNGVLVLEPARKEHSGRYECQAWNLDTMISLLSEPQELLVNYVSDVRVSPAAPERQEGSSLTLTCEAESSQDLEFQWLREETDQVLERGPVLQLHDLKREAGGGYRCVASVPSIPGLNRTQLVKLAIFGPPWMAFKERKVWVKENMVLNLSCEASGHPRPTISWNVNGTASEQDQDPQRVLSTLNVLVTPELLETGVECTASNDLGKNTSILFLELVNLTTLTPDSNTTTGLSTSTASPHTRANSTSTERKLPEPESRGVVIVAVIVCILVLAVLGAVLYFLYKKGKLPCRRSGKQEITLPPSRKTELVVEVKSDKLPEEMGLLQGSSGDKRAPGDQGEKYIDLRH

T2: recombinant hMCAM-His (human, UniProt P43121 24-559)
T2 chain: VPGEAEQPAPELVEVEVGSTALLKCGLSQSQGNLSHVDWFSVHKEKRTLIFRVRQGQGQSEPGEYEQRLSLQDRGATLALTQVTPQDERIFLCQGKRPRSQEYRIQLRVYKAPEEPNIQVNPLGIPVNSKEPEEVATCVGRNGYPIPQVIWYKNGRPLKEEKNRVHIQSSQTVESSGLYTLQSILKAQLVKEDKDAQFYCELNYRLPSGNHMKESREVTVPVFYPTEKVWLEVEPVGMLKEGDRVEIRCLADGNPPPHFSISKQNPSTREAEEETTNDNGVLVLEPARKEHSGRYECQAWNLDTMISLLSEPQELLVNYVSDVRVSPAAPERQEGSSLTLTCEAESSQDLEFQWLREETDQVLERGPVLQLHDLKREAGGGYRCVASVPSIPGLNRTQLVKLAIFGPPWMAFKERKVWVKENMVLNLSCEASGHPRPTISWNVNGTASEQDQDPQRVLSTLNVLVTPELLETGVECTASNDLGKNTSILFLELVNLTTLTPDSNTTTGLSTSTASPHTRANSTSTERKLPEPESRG

T3: human MCAM domain 1 hFc construct (human, UniProt P43121 19-129)
T3 construct: One of the 'various MCAMhFc domains' loaded on the ForteBio sensors; also called MCAMhFc domain 1
T3 sequence: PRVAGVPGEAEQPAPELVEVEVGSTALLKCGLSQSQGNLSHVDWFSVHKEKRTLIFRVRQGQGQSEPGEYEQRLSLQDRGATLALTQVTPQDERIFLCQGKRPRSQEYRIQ

T4: human MCAM domain 2 hFc construct (human, UniProt P43121 139-242)
T4 construct: One of the 'various MCAMhFc domains' loaded on the ForteBio sensors; also called MCAMhFc domain 2
T4 sequence: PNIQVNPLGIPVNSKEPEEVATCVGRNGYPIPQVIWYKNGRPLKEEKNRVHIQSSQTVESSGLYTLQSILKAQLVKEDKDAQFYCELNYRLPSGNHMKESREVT

T5: human MCAM domains 1 and 2 hFc construct (human, UniProt P43121 19-242)
T5 construct: One of the 'various MCAMhFc domains' loaded on the ForteBio sensors
T5 sequence: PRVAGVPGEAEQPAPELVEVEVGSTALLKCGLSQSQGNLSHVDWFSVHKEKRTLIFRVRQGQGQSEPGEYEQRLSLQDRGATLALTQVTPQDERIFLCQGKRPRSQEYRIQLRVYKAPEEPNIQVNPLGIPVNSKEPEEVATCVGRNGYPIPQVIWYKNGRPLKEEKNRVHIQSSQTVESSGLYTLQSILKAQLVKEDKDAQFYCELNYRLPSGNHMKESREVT

T6: human MCAM domain 3 hFc construct (human, UniProt P43121 244-321)
T6 construct: One of the 'various MCAMhFc domains' loaded on the ForteBio sensors; also called MCAMhFc domain 3
T6 sequence: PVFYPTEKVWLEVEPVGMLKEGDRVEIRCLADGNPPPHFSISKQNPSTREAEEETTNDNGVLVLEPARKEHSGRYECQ

T7: human MCAM-Fc protein (extracellular domain of human MCAM fused to human IgG) (human, UniProt P43121 24-559)
T7 construct: also called hMCAM-Fc; MCAMhFc
T7 chain: T2 chain

B1: humanized anti-MCAM antibody h2120_VH1 + h2120_VL1 (antibody, V domains shown)
VH: QVTLKESGPVLVKPTETLTLTCTVSGFSLTSNGVSWVRQPPGKALEWIAAISSGGTTYYNSAFKSRLTISRDTSKSQVVLTMTNMDPVDTATYYCARRYGYGWYFDFWGQGTLVTVSS
VL: DIQMTQSPSSLSASVGDRVTITCKASQNIYNSLAWYQQKPGKAPKVLIFNANSLQTGIPSRFSGSGSGTDFTLTISSLQPEDFATYYCQQFYSGYTFGQGTKLEIK
notes: Human IgG1 / human kappa; also called h2120VH1VL1; Standard VH + standard VL
B2: humanized anti-MCAM antibody h2120_VH1 + h2120_VL2 (antibody, V domains shown)
VH: B1 VH
VL: B1 VL with I58V
notes: Human IgG1 / human kappa; also called h2120VH1VL2; Standard VH + aggressive VL
B3: humanized anti-MCAM antibody h2120_VH4 + h2120_VL3 (antibody, V domains shown)
VH: B1 VH with N32Q
VL: B1 VL with T22N
notes: Human IgG1 / human kappa; also called h2120VH4VL3; N-Q deamidate VH + conservative VL
B4: rat anti-human MCAM monoclonal antibody clone 2107.4.10 (antibody, V domains shown)
VH: QVQLKESGPGLVQSSQTLSLTCTVSGFSLTSNGVSWVRQPPGKGLEWIAAISSGGSTYYNSAFKSRLSISRNTSKSQVLLKMNSLQTEDTGMYFCARHRPFYFDYWGQGVMVTVSS
VL: DIQVTQSPSLLSASVGDRVTLNCKGSQNIYKSLAWFRLKRGEAPKLLIYDANSLQTGIPSRFSGSGSGTDFTLTITSLQPEDVATYFCQQYYSGYTFGAGTKLELK
notes: Rat hybridoma antibody
B5: mouse anti-human MCAM monoclonal antibody clone 1415.1.1 (antibody, V domains shown)
VH: QVQLQQPGAELVQPGAPVKLSCKASGYIFTSYWMNWVKQRPGRGLEWIGRIDPSDSKIHYNQKFKDKATLTVDRSSSTAYIQLGSLTSEDSAVYYCAKEGGLRRGDYAMDYWGQGTSVTVSS
VL: DIVMTQSPATLSVTPGDRVSLSCRASQSISDYLHWYQQKSHESPRLLIKYASQSISGIPSRFSGSGSGSDFTLSINSVEPEDVGVYYCQNGHNFPRTFGGGTKLEIK
notes: Mouse hybridoma antibody
B6: mouse anti-human MCAM monoclonal antibody clone 1174.1.3 (antibody, V domains shown)
VH: QIQLVQSGPELKKPGETVKISCKASGYTFTNYGMNWVKQAPGKGLKWMGWINTYTGEPTYADDFKGRFALSLETSASTAYLQINNLKNEDMATYFCARYRYNKYERAMDYWGQGTSVTVSS
VL: DIVLTQSPASLAVSLGQRATISCRASKSVSTSGYSYMYWYQQKPGQPPKLLIYLASNLESGVPARFSGSGSGTDFTLNIHPVEEEDAATYYCQHSRELPFTFGSGTKLEIK
notes: Mouse hybridoma antibody
B7: mouse anti-human MCAM monoclonal antibody clone 1414.1.2 (antibody, V domains shown)
VH: EIQLQQTGPELVKPGASVKISCKASGYSFTDYIMLWVKQSHGKSLEWIGNINPYSGSSGYNLKFKGKATLTVDKSSSTAYMQLNSLTSEDSAVYYCARGKDFAMDYWGQGTSVTVSS
VL: DIVMSQSPSSLAVSAGEKVTMSCKSSQSLLNSSTRKNFLAWYQQKPGQSPKLLIYWASTRESGVPDRFTGSGSGTDFTLTISSVQAEDLAVYYCKQSYNRYTFGGGTKLEIK
notes: Mouse hybridoma antibody

Key:
[1] = target: T1, human MCAM expressed on CHO cells (full …); experiment: laminin/FACS assay: blocking of recombinant laminin 411 binding to hMCAM expressing CHO cells, relative to rodent 2120, Expt#2
Method: (§1) Following incubation for 30-45 minutes, the cells were washed and anti-laminin conjugated to AF650 (NovusBio) was added to detect the bound laminin. The cells were run on a flow cytometer to measure the laminin binding signal.

[2] = target: T1, human MCAM expressed on CHO cells (full …); experiment: laminin/FACS assay: blocking of recombinant laminin 411 binding to hMCAM expressing CHO cells, relative to rodent 2120, Expt#1
Method: as §1

recombinant hMCAM-His [3] = target: T2, recombinant hMCAM-His; experiment: competitive ELISA on coated hMCAM-His, competitor biotinylated rodent or chimeric 2120; IC50 relative to rodent 2120
Method: The apparent affinities of the humanized antibodies were compared to the parental rodent or chimeric antibody in a competitive ELISA according to the following protocol: ELISA plates were coated with recombinant hMCAM-His, and blocked with casein buffer to prevent non-specific binding. Biotinylated rodent or chimeric antibody was added at a subsaturating concentration, in the presence or absence of 3× increasing concentrations of unlabeled competitor (humanized antibody, rodent, or chimeric). After washing to remove unbound antibody, streptavidin HRP was added to allow detection of the biotinylated antibody. The ELISA was developed with TMB substrate and the OD450 was measured. The IC50 of the unlabeled competitor was determined using the GraphPad Prism5 software.

recombinant hMCAM-His [4] = target: T2, recombinant hMCAM-His; experiment: ForteBio Octet Red, antibody on anti-human Fc sensors, hMCAMHis analyte, 1:1 fit; affinity relative to rodent 2120, first Forte column
Method: The affinities were measured using the ForteBio Octet Red. Anti-human Fc sensors were used to capture the humanized antibodies, and several concentrations of hMCAMHis analyte were used to determine the affinity using a 1:1 fitting model.

[5] = target: T1, human MCAM expressed on CHO cells (full …); experiment: flow cytometry: blocking of recombinant human laminin 411 (20 ug/ml) binding to CHO cells expressing human MCAM
Method: The 87 independent mouse fusion clones and 26 independent rat fusion clones described in Example 1 above as being capable of (i) binding to human MCAM, and (ii) blocking the interaction between human MCAM and the α-4 chain of laminin were further characterized as follows. First, IC50 quantitation for the ability of the monoclonal antibody to block the binding of human MCAM to the α-4 chain of laminin was determined as follows. CHO cells expressing human MCAM were incubated with an anti-human MCAM antibody (at various concentrations) for 30 minutes at 4 degrees Celsius. […] Unbound laminin was then washed away, and the laminin bound to the surface of the cells was detected with fluorescently labeled anti-laminin antibodies. After washing, the amount of laminin bound to the surface was detected by flow cytometry, and IC50s were calculated based on the mean fluorescent intensity.
Amino acid and nucleic acid sequences of the heavy and light chains of these antibodies, and their hypervariable regions, are provided in SEQ ID NOs:29-92. […] As such, each of these specific monoclonal antibodies was very capable of binding to human MCAM and inhibiting the interaction of cell-expressed human MCAM with its α-4 laminin binding ligand.

[6] = target: T3, human MCAM domain 1 hFc construct; experiment: ForteBio Octet Red, MCAMhFc domains on anti-human IgG Fc sensors
From the text: (§2) The following protocol was used: ForteBio anti-human IgG Fc biosensors were used to immobilize various MCAMhFc domains including full length MCAMhFc protein on to biosensor surface. […] After loading these samples into a black 96 well plate, the Octet Red was programmed as follows: 60 seconds for baseline #1; 180 seconds for loading various domains; 60 seconds for baseline #2; 180 seconds for association of antibody to domain; and 240 seconds for dissociation of antibody from domain.
(§3) Reagents and Supplies Used: [0358] 1. MCAMhFc final concentration @ 5 ug/ml [0359] […] 3. ForteBio anti-human IgG Fc Capture (AHC) biosensors for kinetics experiments, cat#18-5060 [0361] 4. Block 96 well plate from Greiner Bio-one, cat#655209 [0362] 5. ForteBio Octet Red machine [0363] 6. Fresh tissue culture medium, DMEM with 20% FCS, was used as buffer for dilution

[7] = target: T4, human MCAM domain 2 hFc construct; experiment: as above
From the text: as §2, §3

[8] = target: T5, human MCAM domains 1 and 2 hFc construct; experiment: as above
From the text: as §2, §3

[9] = target: T6, human MCAM domain 3 hFc construct; experiment: ForteBio Octet Red, MCAMhFc domains on anti-human IgG Fc sensors, antibody at 5 ug/ml
From the text: as §2, §3

[10] = target: T7, human MCAM-Fc protein (extracellular …); experiment: summary sentence of Example 3 (ForteBio, MCAMhFc)
From the text: as §2, §3

Binder	Fold over rodent (Blocking) [1] [fold]	Fold over rodent (Blocking) [2] [fold]	Fold over rodent (ELISA) (recombinant hMCAM-His [3]) [fold]	Fold over rodent (Forte) (recombinant hMCAM-His [4]) [fold]	IC50 [5] [µg/mL]	binding result [6]	binding result [7]	binding result [8]	binding result [9]	binding result [10]
B1	3.5	2	3.1	8.8						
B2	12.6	4.6	3.1	10.8						
B3	5.6	3.8	5	17.4						
B4					0.29	no binding (tested: 5 ug/ml)				
B5					0.307	no binding (tested: 5 ug/ml)	no binding (tested: 5 ug/ml)	no binding (tested: 5 ug/ml)	binds	binds
B6					0.469	no binding (tested: 5 ug/ml)	no binding (tested: 5 ug/ml)	no binding (tested: 5 ug/ml)	binds	binds
B7					0.431	no binding (tested: 5 ug/ml)	no binding (tested: 5 ug/ml)	no binding (tested: 5 ug/ml)	binds	binds
